Laboratory results as given in PMC6053440, “Cellular stress induces erythrocyte assembly on intravascular von Willebrand factor strings and promotes microangiopathy” (Scientific Reports, 2018).

Target: T1, von Willebrand factor, human plasmatic (human, UniProt P04275 764-2813)
T1 construct: von Willebrand factor, human, from plasma; multimeric glycoprotein; Multimer of disulfide-linked subunits; The results call the VWF of the ELISA recombinant, but the methods name plasmatic VWF; also called VWF; plasmatic VWF; source: bought: Calbiochem (human plasmatic VWF)
T1 sequence (P04275 764-2813): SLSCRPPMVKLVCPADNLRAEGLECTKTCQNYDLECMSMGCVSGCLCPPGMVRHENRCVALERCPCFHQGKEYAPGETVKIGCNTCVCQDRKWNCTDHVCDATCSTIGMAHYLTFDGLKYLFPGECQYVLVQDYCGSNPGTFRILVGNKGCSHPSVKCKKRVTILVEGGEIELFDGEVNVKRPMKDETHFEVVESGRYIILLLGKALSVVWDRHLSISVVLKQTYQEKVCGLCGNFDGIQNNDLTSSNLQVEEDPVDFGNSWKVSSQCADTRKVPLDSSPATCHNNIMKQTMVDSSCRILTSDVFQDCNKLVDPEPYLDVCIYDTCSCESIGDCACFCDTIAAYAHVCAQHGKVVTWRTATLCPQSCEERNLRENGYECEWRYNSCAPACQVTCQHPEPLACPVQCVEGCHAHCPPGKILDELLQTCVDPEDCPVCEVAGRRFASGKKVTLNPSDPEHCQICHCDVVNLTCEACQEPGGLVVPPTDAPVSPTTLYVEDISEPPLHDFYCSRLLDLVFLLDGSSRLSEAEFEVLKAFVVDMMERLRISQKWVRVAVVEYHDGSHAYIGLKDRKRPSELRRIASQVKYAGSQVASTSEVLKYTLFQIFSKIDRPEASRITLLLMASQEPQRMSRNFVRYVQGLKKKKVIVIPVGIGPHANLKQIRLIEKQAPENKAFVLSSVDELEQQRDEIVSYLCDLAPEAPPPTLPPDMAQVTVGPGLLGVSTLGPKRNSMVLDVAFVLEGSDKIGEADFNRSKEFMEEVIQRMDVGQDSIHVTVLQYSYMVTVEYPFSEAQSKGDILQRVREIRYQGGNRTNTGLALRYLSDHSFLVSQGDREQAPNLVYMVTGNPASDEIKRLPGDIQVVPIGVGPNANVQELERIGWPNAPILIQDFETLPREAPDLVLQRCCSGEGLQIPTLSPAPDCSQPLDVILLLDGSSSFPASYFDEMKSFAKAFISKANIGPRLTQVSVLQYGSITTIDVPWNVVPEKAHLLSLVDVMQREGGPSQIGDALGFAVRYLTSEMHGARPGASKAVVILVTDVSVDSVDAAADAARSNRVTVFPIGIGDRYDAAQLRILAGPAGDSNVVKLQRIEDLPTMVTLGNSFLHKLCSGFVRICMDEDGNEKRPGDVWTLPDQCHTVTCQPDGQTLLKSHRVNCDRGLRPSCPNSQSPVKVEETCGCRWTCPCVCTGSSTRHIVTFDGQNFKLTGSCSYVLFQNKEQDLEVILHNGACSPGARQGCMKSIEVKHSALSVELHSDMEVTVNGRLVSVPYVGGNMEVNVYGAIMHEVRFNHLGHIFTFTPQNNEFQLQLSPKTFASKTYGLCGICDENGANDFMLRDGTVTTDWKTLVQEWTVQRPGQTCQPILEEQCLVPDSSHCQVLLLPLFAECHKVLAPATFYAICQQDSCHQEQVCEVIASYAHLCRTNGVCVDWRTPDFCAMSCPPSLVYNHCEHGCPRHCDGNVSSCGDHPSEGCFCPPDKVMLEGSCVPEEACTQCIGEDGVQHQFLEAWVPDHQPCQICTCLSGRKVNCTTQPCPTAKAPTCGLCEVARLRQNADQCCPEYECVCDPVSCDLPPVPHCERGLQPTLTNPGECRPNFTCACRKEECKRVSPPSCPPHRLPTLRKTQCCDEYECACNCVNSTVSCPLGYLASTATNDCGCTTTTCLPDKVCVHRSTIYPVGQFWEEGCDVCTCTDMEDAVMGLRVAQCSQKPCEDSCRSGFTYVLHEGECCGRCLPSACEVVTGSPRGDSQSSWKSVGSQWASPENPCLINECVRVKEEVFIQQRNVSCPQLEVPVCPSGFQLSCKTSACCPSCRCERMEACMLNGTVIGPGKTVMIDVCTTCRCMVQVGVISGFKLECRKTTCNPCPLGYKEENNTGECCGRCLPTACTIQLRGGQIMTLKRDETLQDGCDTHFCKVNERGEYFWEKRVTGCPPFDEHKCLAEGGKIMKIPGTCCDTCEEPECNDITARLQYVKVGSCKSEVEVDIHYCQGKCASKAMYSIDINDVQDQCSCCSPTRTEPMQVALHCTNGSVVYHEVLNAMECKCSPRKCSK
Experiment: ELISA; 96-well plates coated with 20 µg/ml AV; human plasmatic VWF added at 0.15, 0.5, 1.0 and 1.5 µg/ml; bound VWF detected colorimetrically with peroxidase-labelled anti-human VWF antibody; washing with calcium-free buffer
Conditions: both partners purified

- binding result: binds
B1: Annexin V (natural protein, human, UniProt P08758 1-320, looked up)
chain: MAQVLRGTVTDFPGFDERADAETLRKAMKGLGTDEESILTLLTSRSNAQRQEISAAFKTLFGRDLLDDLKSELTGKFEKLIVALMKPSRLYDAYELKHALKGAGTNEKVLTEIIASRTPEELRAIKQVYEEEYGSSLEDDVVGDTSGYYQRMLVVLLQANRDPDAGIDEAQVEQDAQALFQAGELKWGTDEEKFITIFGTRSVSHLRKVFDKYMTISGFQIEETIDRETSGNLEQLLLAVVKSIRSIPAYLAETLYYAMKGAGTDDHTLIRVMVSRSEIDLFNIRKEFRKNFATSLYSMIKGDTSGDYKKALLLLCGEDD
notes: Annexin V (annexin A5), human, purified from placenta; The methods of the ELISA name AV purified from human placenta (Sigma-Aldrich), but the results call it recombinant AV; In the flow adhesion experiments purified recombinant AV (BD Biosciences, 10 µg/ml) was added, and the erythrocytes' own AV was also present; also called AV; source: bought: Sigma-Aldrich, purified AV from human placenta
